Target: FRQ WT peptide … (FFD and the double arginines) (N. crassa)
Experiment: peptide or protein array

Work on “FREQUENCY-Interacting RNA Helicase, FRHΔ100 (E. coli expressed, 6x His-tag) (from UniProt Q1K502 100-1106) (domain or fragment)” yielded a normalized microarray intensity of 64.

From article doi:10.1101/2022.01.04.474980
